Data on 1 substance can be found in patent US20230220080A1.

The assay addresses B lymphoma cell lines Raji or Daudi (CD20 and CD22). Briefly: FACS on Raji cells, Alexa Fluor 488 anti-human IgG1, MFI; binder is a 1:1 mixture.

pEC50: −log10 of the molar value.

As for Epratuzumab/ Ofatumumab (1:1), the pEC50 is 8.49.
